Data on five molecules can be found in patent publication US20230212549A1 (3B PHARMACEUTICALS, published 2023).

Numbered stars: 1 amine (or outer) side, 2 acyl side, 3 side chain; on linkers, the order of the positions; unused ones are H or OH. Bridge positions count the residues as written; N and C are the ends. Square brackets hold non-standard residues; d marks the D form. Primed or numbered codes have the meaning given here. * marks the point of attachment. Ttds = 1,13-diamino-4,7,10-trioxatridecan-succinamic acid, O=C(CCC(=O)[*:2])NCCCOCCOCCOCCCN[*:1]; 3MeBn = 3-Methylbenzylidene (m-xylylene thioether bridge from α,α′-dibromo-m-xylene); Ttds(4) = spacer between chelator and peptide, O=C(CCC(=O)[*:2])NCCCOCCOCCOCCCN[*:1]; N4Ac = 6-Carboxy-1,4,8,11-tetraazaundecane, an N4-chelator, NCCNCC(CNCCN)C(=O)*; DOTA = O=C(O)CN1CCN(CC(=O)O)CCN(CC(=O)*)CCN(CC(=O)O)CC1; 3Lut = 3,5-lutidylidene (derived from 3,5-lutidine); mXylylene = c1cc(C[*:1])cc(C[*:2])c1; PPAc = 4-Carboxymethyl piperazine; Nle = CCCC[C@H](N)C(=O)O; PEG6′ = not defined here; βAla = NCCC(=O)O

Assay [1] concerns the target T1, Recombinant human FAP (R&D systems, #3715-SE) (human, UniProt Q12884 26-760).
T1 construct: bought; in SPR captured on immobilized anti-FAP antibody MAB3715; also called rhFAP; human recombinant FAP
Description: SPR (Biacore T200), FAP captured on anti-FAP antibody, single cycle kinetics; B = pKD 7.1 to 8.0. (SPR reads the build-up and loss of mass on a sensor chip optically.)

The target in assay [2] is Recombinant human DPP4 (R&D systems, #9168-SE) (human, UniProt P27487 29-766). Description: cell-based or functional assay.
Chain of Recombinant human DPP4 (R&D systems, #9168-SE) (P27487 29-766 limits assumed): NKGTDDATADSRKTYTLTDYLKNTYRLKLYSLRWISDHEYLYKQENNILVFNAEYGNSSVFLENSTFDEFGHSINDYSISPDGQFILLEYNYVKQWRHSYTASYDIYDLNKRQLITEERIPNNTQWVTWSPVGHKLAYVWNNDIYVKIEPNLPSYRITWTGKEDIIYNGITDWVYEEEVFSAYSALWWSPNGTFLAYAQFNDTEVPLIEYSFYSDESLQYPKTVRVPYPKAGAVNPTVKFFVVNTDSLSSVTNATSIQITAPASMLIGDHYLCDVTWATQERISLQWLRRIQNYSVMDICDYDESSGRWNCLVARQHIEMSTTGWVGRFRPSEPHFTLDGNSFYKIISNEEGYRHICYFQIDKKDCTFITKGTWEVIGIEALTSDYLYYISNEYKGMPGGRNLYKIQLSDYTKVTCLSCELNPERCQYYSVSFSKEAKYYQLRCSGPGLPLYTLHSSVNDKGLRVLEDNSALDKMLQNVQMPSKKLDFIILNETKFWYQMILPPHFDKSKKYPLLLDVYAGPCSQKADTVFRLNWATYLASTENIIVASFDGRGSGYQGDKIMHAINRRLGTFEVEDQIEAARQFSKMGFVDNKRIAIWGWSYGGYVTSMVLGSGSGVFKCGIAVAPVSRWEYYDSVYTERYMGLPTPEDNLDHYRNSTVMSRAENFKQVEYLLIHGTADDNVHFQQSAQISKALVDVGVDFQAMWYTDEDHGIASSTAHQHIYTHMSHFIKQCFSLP
For assay [3], the target named is T2, recombinant human PREP (R&D systems, #4308-SE) (human, UniProt P48147 1-710).
T2 sequence: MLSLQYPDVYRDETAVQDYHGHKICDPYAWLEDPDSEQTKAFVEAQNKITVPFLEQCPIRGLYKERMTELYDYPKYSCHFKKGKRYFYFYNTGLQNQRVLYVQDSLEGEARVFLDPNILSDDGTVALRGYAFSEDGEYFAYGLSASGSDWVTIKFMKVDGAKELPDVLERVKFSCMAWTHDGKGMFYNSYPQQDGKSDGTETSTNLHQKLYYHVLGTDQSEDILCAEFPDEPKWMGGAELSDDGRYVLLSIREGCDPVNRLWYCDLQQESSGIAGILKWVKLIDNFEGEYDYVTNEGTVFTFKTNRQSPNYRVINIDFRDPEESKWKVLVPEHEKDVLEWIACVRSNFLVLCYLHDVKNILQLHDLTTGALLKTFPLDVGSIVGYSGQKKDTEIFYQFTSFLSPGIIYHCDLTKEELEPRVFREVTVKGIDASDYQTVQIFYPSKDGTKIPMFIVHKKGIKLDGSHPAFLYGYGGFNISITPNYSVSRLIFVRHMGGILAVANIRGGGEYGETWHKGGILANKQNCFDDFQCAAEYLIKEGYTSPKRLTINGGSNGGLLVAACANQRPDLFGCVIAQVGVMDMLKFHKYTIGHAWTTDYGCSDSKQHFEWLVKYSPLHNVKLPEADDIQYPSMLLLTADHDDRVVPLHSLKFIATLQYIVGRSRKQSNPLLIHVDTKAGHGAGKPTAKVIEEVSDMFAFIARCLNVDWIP
The assay is described as follows: cell-based or functional assay.

Assay [4] addresses T3, Human recombinant FAP captured on anti-FAP antibody (SPR) (human, UniProt Q12884 26-760).
T3 construct: whole entry of human FAP named; also called rhFAP
The assay is described as follows: SPR (Biacore), rhFAP captured by anti-FAP antibody; pKD category A = >8.0.

The target of assay [5] is T4, human fibroblast activating protein (FAP) on WI-38 fibroblasts (human, UniProt Q12884 1-760).
T4 construct: FAP-expressing human WI-38 fibroblasts (ECACC)
The assay is described as follows: competitive FACS on WI-38 cells vs 3 nM Cy5-labeled peptide; pIC50 category A = >8.0.

The target in assay [6] is T4, human fibroblast activating protein …. Description: competitive FACS on WI-38 cells vs 3 nM Cy5-labeled peptide; pIC50 category C = 6.1-7.0.
Assay [7] shares this target. The assay is described as follows: competitive FACS on WI-38 cells vs 3 nM Cy5-labeled peptide; pIC50 category B = 7.1-8.0.
For assay [8], the target named is T3, Human recombinant FAP captured on …. Description: SPR (Biacore), rhFAP captured by anti-FAP antibody; pKD category B = 7.1-8.0.

B1: DOTA-Ttds-Nle-[Cys(3MeBn)-Pro-Pro-Thr-Glu-Phe-Cys]-NH2 (peptide)
peptide: {DOTA}-[Ttds][Nle]CPPTEFC-NH2
modifications: linker 3-9 via mXylylene
SMILES: CCCC[C@H](NC(=O)CCC(=O)NCCCOCCOCCOCCCNC(=O)CN1CCN(CC(=O)O)CCN(CC(=O)O)CCN(CC(=O)O)CC1)C(=O)N[C@H]1CSCc2cccc(c2)CSC[C@@H](C(N)=O)NC(=O)[C@H](Cc2ccccc2)NC(=O)[C@H](CCC(=O)O)NC(=O)[C@H]([C@@H](C)O)NC(=O)[C@@H]2CCCN2C(=O)[C@@H]2CCCN2C1=O
notes: also called 3BP-3319
For B1, the pKD in assay [1] lay in the range of 7.1 to 8 pkd. Also, the “pIC50 (DPP4)” value in assay [2] is less than 6 pIC50. Also, the “pIC50 (PREP)” value in assay [3] was found to be 6.2 pIC50.
With {N4Ac-PPAc-Ttds(4)}-[Nle]CPPTEFC[βAla]-OH (linker 2-8 via 3MeBn, also called 3BP-4784) [N4Ac-PPAc-Ttds-Nle-[C(3MeBn)-PPTEFC]-Bal-OH], in assay [4], the pKD is greater than 8 pkd. The same molecule came in with a pIC50 in assay [5] greater than 8 pic50.
{N4Ac-PEG6′-βAla}-[Nle]CPPTEFC-OH (linker 2-8 via 3MeBn, also called 3BP-4779) [N4Ac-PEG6-Bal-Nle-[C(3MeBn)-PPTEFC]-OH]: the pIC50 in assay [6] lay within 6.1 to 7 pic50.
In assay [7], {N4Ac-PPAc-Ttds(4)}-[Nle]CPPTEFC-OH (linker 2-8 via 3Lut, also called 3BP-4775) [N4Ac-PPAc-Ttds-Nle-[C(3Lut)-PPTEFC]-OH] had a pIC50 of 7.1 to 8 pic50. For the same molecule, in assay [8], the pKD was 7.1 to 8 pkd.
The matching figures for {N4Ac-PEG6′}-[Nle]CPPTEFC-OH (linker 2-8 via 3Lut, also called 3BP-4773) [N4Ac-PEG6-Nle-[C(3Lut)-PPTEFC]-OH]: 7.1 to 8 pic50 and 7.1 to 8 pkd.
